According to publication doi:10.1101/308353:

Target: GFP-βRat CaMKII holoenzyme (rat) (UniProt P08413)
Assay: single molecule TIRF microscopy

Chain of UniProt P08413 (P08413 whole entry): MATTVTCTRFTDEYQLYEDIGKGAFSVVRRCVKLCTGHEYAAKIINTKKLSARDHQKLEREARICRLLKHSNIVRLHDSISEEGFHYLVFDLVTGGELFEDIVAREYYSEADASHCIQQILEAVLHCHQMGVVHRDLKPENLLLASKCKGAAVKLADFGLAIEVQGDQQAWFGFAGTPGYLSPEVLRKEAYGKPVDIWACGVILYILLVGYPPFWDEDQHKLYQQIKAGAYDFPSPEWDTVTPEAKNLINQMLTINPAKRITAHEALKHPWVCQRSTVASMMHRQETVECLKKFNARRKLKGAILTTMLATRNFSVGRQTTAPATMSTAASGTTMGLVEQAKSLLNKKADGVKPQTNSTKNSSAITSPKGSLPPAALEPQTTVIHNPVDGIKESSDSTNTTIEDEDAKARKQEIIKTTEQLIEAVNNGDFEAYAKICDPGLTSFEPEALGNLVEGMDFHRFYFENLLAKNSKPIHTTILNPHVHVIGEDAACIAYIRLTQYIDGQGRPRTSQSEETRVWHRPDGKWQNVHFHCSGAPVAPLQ

- Pearson's correlation of co-localization: 0.33
Substance: Cy3 conjugated G-actin (from UniProt P68135 1-377) (natural protein)
